The values below come from article PMC6794372.

Assay [1] has as its target PRA, recombinant C-terminal domain of MYH9, His-SUMO tag removed. Put plainly: negative-stain electron microscopy; purified PRA (5 mM) for 1 h at 4°C in 50 mM Tris, 150 mM NaCl, 10% glycerol, 3 mM CaCl2; supernatant after centrifugation, 1% uranyl acetate.
For assay [2] the target is unchanged. Briefly: non-reducing SDS-PAGE and Western blot; PRA (5 mM) alone or pre-incubated with S100A4 (10 mM, 3 mM CaCl2) at 4°C for 1 h; without DTT; blot with anti-MYH9 pAb. In general terms: A western blot detects proteins with antibodies after separation by electrophoresis.

The term stoichiometry N denotes a count of units in the complex or per binding partner. For the substance “PRA, recombinant C-terminal domain of MYH9, His-SUMO tag removed (domain or fragment)”, the stoichiometry N in assay [1] and in assay [2] was 2 each time.
